Measurements as given in patent US7981691B2, “Two helix binders” (General Electric Company, priority 2006, dated 2011).
Positions of bridges follow the written chain, without caps; N, C: chain ends. Non-standard residues stand in square brackets, D forms with d. No end group written: not given here. Aib = CC(C)(N)C(=O)O

Tests used:
[1] = CD spectroscopy of 2-helix scaffolds (secondary structure, helicity); format: physicochemical; settings: Circular Dichroism
Experimental: Secondary structure of different 2-helix scaffold was determined by CD analysis. All CD spectra were obtained on an JASCO J-815 CD spectropolarimeter in the wavelength range of 250-185 nm using 1 nm bandwidth, 0.5 nm resolution, 4 seconds averaging time, 3 scan per sample, 0 second delay, and a path length of 1 mm. Spectra were recorded at 20° C., unless otherwise noted, in a thermostated circular cuvette, with peptide concentrations of 15 μM in 13 mM of K2HPO4 buffer at pH8. Results are reported as mean residue ellipticity (MRW).

[2] = biological target: T1, extracellular domain of the Her2/neu antigen (Fc-Her2) (Homo sapiens, UniProt P04626); test: SPR (BIAcore) binding of two helix peptides to immobilized Fc-Her2; settings: relative binding by SPR
T1 construct: The extracellular domain of the Her2/neu antigen was obtained as a conjugate with the Fc region of human IgG; purchased R&D Systems
Experimental: Binding interactions between the binder and the Her2/neu antigen was measured in vitro using surface plasmon resonance (SPR) detection on a BIAcore™ 3000 instrument (Piscataway, N.J.). The extracellular domain of the Her2/neu antigen was obtained as a conjugate with the Fc region of human IgG (Fc-Her2) from R&D Systems and covalently attached to a CM-5 dextran-functionalized sensor chip (BIAcore™) pre-equilibrated with HBS-EP buffer (0.00M HEPES pH 7.4, 0.15M NaCl, 3 mM EDTA, 0.005% v/v surfactant P20) at 10 μL/min and subsequently activated with 1-ethyl-3-[3-dimethylaminopropyl]carbodiimide hydrochloride (EDC) and N-hydroxysuccinimide (NHS). The Fc-Her2 (5 μg/ml) in 10 mM sodium acetate (pH 5.5) was injected onto the activated sensor chip until the desired immobilization level was achieved (2 min). Residual activated groups on the sensor chip were blocked by injection of ethanolamine (1 M, pH 8.5). Any non-covalently bound conjugate was removed by repeated (n=5) washing with 2.5 M NaCl2, 50 mM NaOH.
A second flow cell on the same sensor chip was treated identically, except with no Fc-Her2 immobilization, to serve as a control surface for refractive index changes and non-specific binding interactions with the sensor chip. Prior to the kinetic study, binding of the target analyte was tested on both surfaces and a surface stability experiment was performed to ensure adequate removal of the bound analyte and regeneration of the sensor chip following treatment with 2.5 M NaCl, 50 mM NaOH. SPR sensorgrams were analyzed using the BiaEval (BIAcore) software.
The binding interactions between the generated peptide and Fc-Her2 conjugate were measured using SPR (BIAcore). To minimize mass transport limitations, a surface density of ˜3000 Rus (Response Units) Fc-Her2 was used, resulting in a maximal binding response ˜100 RU with ˜100 nM of the synthesized peptide. SPR measurements were collected at eight analyte concentrations (0-100 nM peptide) and the resulting sensorgrams were fitted to a 1:1 Langmuir binding model.

Sequence	helicity / population of helix conformers (in words) [1]	binding to target molecule Her2 (in words) [2]
VENKCNKEMRNAYWEIALLPNLNNQXKRAXIRSXYDDPC (VENKCNKEMRNAYWEIALLPNLNNQ[Aib]KRA[Aib]IRS[Aib]YDDPC-NH2; disulfide 5-39 (inferred)) [SEQ. ID. NO. 25]	helicity increases	unable to bind target molecule
VENKCNKXMRNXYWEXALLPNLNNQQKRAFIRSLYDDPC (VENKCNK[Aib]MRN[Aib]YWE[Aib]ALLPNLNNQQKRAFIRSLYDDPC-NH2; disulfide 5-39 (inferred)) [SEQ. ID. NO. 24]	helicity increases	unable to bind target molecule
VENKCNKXMRNXYWEXALLPNLNNQXKRAXIRSXYDDPC (VENKCNK[Aib]MRN[Aib]YWE[Aib]ALLPNLNNQ[Aib]KRA[Aib]IRS[Aib]YDDPC-NH2; disulfide 5-39 (inferred)) [SEQ. ID. NO. 26]	helicity increases	unable to bind target molecule
